Entries after “also recorded” stand apart in the source; their conditions may differ.
B1: DP-1^172/173: mutant DP-1 protein with residues A172 and L173 changed to glycine (protein, UniProt Q14186 1-410, looked up, variant A172G L173G)
Transcription factor Dp-1: MAKDAGLIEANGELKVFIDQNLSPGKGVVSLVAVHPSTVNPLGKQLLPKTFGQSNVNIAQQVVIGTPQRPAASNTLVVGSPHTPSTHFASQNQPSDSSPWSAGKRNRKGEKNGKGLRHFSMKVCEKVQRKGTTSYNEVADELVAEFSAADNHILPNESAYDQKNIRRRVYDGGNVLMAMNIISKEKKEIKWIGLPTNSAQECQNLEVERQRRLERIKQKQSQLQELILQQIAFKNLVQRNRHAEQQASRPPPPNSVIHLPFIIVNTSKKTVIDCSISNDKFEYLFNFDNTFEIHDDIEVLKRMGMACGLESGSCSAEDLKMARSLVPKALEPYVTEMAQGTVGGVFITTAGSTSNGTRFSASDLTNGADGMLATSSNGSQYSGSRVETPVSYVGEDDEEDDDFNENDEDD

Tests used:
DP-1/E2F-1 heterodimer = biological target: T1, DP-1/E2F-1 heterodimer (Homo sapiens, UniProt Q01094); assay: binding assay: GST-E2F-1 fusion protein bound to in vitro translated DP-1, peptide competition; conditions: peptide included in binding reaction
T1 construct: GST (N); made in house; DP-1 made by in vitro translation
T1 sequence (Q01094 whole entry, the tested form may be a part, one chain of several): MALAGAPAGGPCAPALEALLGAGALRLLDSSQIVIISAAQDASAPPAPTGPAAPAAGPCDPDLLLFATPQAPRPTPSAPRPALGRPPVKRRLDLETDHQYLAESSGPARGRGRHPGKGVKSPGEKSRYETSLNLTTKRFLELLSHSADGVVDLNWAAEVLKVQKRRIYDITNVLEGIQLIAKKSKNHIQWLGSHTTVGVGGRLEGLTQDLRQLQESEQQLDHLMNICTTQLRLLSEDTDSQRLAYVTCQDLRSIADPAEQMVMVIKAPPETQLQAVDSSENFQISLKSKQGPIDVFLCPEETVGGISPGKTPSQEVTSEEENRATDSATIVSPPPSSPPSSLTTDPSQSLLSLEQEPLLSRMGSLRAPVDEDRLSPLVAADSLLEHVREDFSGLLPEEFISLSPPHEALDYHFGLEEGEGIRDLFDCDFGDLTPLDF
Text: To determine the influence of the DEF box region upon the formation of the DP-1/E2F heterodimer, we used a binding assay in which E2F-1, expressed as a GST-E2F-1 fusion protein, bound to in vitro translated DP-1, an assay used previously to measure dimerization between DP and E2F proteins (31,32). Peptides were included in the binding reaction and their ability to compete with wild-type DP-1 for E2F-1 assessed by the amount of DP-1 which remained bound to the E2F-1 fusion protein.
(§1) GST-E2F-1, E2F-2, E2F-3 and pRb have been described previously (27,31,32) and were purified to homogeneity using glutathione Sepharose. In vitro translated DP-1, DP-1^172/173, E2F-1 and E1a were translated as described previously (27,31,32).
(§2) Gel retardation was performed using 5 to 10 μg of either F9 EC or JM cell extract with either an E2F or ATF site as previously described (15). Where fusion proteins were used, about 25 ng of either DP-1 or E2F-1 were used in each binding assay. For in vitro translates, about 6 μl of the translation mix was used in each binding assay. Gel retardation with an E2F binding site taken from the adenovirus E2a promoter was as previously described (15).

[1] = biological target: T2, E2F DNA binding activity of DP-1/E2F-1 heterodimer (Homo sapiens, UniProt Q01094); assay: DP-1/E2F-1 DNA binding assay (gel retardation, bacterial fusion proteins); assay type: biochemical; conditions: peptide titrated 1, 0.5, 0.1, 0.01 nmol
T2 construct: GST (N); made in house; host or cells: bacterial
T2 sequence (Q01094 whole entry, the tested form may be a part, one chain of several): as above
Text: Since the peptides function as antagonists of the formation of the DP/E2F heterodimer, we reasoned that they may also interfere with E2F DNA binding activity. To address this question, we determined whether the E2F DNA binding activity created in vitro from combining bacterial DP and E2F fusion proteins was affected by the peptides.
As previously shown, the interaction between DP-1 and E2F-1 leads to co-operative DNA binding activity. Peptide H (SEQ ID NO:1) was titrated into the DP-1/E2F-1 DNA binding assay, using 1 nmol, 0.5 nmol, 0.1 nmol and 0.01 nmol of peptide.
as §2

[2] = tested on: physiological E2F DNA binding activity (DP-1/E2F heterodimer) in F9 embryonal carcinoma cell extracts; assay: gel retardation, E2F site, F9 EC cell extracts; assay type: biochemical; conditions: for inactivation of E2F DNA binding activity in F9 EC cell extracts: F9 EC cell extract, peptide up to 1 nmol
Text: Because the DEF box peptides can antagonise DNA binding activity of the DP-1/E2F heterodimer formed in vitro, we went on to establish their effects on physiological E2F. For this experiment, we used extracts prepared from F9 embryonal carcinoma (EC) cells, since these cells contain high levels of endogenous E2F DNA binding activity as a DP-1/E2F-heterodimer (26).
(§3) In a similar fashion to its effect upon the in vitro formed activity, the physiological DNA binding activity in F9 EC cell extracts was inactivated upon titration of peptide H (using the same concentrations mentioned above), but not by H1. This effect was specific for E2F since no effect on the unrelated DNA binding activity ATF was observed under similar conditions.
as §2

DP-1/E2F-3 heterodimer = biological target: T3, DP-1/E2F-3 heterodimer (Homo sapiens, UniProt O00716); assay: binding assay: GST-E2F-3 bound to in vitro translated DP-1; conditions: peptide 5 nmol, 1 nmol, 100 pmol
T3 construct: GST (N); made in house; host or cells: GST fusion purified on glutathione Sepharose; DP-1 made by in vitro translation
T3 sequence (O00716 whole entry, the tested form may be a part, one chain of several): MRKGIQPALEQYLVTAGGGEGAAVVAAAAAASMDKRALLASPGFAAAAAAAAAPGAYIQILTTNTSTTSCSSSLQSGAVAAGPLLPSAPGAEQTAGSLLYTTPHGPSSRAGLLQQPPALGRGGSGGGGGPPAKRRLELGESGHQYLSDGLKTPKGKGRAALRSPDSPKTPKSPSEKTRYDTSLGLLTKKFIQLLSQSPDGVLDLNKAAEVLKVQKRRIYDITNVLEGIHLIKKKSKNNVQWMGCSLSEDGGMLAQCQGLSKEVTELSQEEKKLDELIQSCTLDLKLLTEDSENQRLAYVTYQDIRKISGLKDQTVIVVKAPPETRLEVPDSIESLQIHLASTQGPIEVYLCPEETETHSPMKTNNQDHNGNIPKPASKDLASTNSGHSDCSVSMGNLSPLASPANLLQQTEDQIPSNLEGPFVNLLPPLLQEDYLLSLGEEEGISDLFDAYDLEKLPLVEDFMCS
Text: (§4) FIG. 2 illustrates that peptides containing DEF box sequence prevent DP-1 forming a heterodimer with E2F family members. The ability of in vitro translated DP-1 (indicated by bracket) to bind to GST-E2F-1 (tracks 1,2,3 and 4), GST-E2F-2 (5,6,7 and 8) or GST-E2F-3 (9,10,11 and 12) in the absence (tracks 1,5 and 9) or presence of decreasing levels of peptide H (5 nmol; tracks 2,6 and 10; 1 nmol tracks 3,7 and 11 or 100 pmol tracks 4,8 and 12).
(§5) In the second, the activity of the DEF box antagonist peptide H was assessed on heterodimers formed between DP-1 and the other E2F family members, E2F-2 and E2F-3, which show high conservation with E2F-1 across the DEF box. […] We conclude therefore that peptides representing sequence derived from the DEF box function as specific antagonists of the DP-1/E2F heterodimer.
as §1

ATF DNA binding activity = assay: gel retardation, ATF site (specificity control); assay type: biochemical; conditions: similar conditions as E2F assay
Description: as §3, §2

[3] = biological target: T4, pRb / adenovirus E1a protein interaction (Homo sapiens, UniProt P06400); assay: specificity control: binding of pRb to in vitro translated adenovirus E1a protein; conditions: unrelated protein-protein interaction control
T4 construct: GST; made in house; host or cells: pRb fusion purified on glutathione Sepharose; E1a made by in vitro translation
T4 sequence (P06400 1-928): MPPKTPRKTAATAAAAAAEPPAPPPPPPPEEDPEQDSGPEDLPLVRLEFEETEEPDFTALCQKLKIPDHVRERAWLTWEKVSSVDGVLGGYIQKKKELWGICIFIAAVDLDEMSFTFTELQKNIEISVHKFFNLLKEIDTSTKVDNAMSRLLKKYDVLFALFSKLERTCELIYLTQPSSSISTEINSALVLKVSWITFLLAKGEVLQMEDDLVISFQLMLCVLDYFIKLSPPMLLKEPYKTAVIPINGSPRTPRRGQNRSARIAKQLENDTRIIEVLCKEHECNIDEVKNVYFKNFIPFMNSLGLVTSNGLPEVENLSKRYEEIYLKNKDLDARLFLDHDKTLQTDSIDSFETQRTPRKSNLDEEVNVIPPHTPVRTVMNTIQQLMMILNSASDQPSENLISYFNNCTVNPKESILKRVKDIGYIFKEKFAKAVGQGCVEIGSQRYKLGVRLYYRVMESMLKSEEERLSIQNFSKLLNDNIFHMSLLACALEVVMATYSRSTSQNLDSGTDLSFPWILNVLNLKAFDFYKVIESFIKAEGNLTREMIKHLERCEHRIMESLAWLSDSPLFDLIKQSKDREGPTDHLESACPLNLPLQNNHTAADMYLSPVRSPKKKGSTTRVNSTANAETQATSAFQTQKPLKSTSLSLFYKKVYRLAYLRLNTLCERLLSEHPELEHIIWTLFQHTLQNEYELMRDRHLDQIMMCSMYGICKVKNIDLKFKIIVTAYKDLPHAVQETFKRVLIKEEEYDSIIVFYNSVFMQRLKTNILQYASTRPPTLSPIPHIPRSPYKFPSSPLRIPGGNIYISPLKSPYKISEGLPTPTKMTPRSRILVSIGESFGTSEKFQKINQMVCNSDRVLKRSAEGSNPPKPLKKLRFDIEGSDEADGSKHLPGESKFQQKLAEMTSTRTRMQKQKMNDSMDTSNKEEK
Description: To evaluate the specificity of this effect, we undertook two controls. Firstly, the effect of DEF box derived peptides on an unrelated but well characterised protein-protein interaction was assessed, namely the binding of pRb to the adenovirus E1a protein (34). The E1a protein, when provided in the assay as an in vitro translate, specifically bound to pRb. […] Secondly, unrelated peptides representing other regions of DP-1 or subdomains of peptide H were assessed in the binding reaction. […] Overall, the results argue that peptide H antagonises the interaction between DP-1 and E2F-1 in the formation of a heterodimer.
as §1

DP-1/E2F-2 heterodimer = biological target: T5, DP-1/E2F-2 heterodimer (Homo sapiens, UniProt Q14209); assay: binding assay: GST-E2F-2 bound to in vitro translated DP-1; conditions: peptide 5 nmol, 1 nmol, 100 pmol
T5 construct: GST (N); made in house; host or cells: GST fusion purified on glutathione Sepharose; DP-1 made by in vitro translation
T5 sequence (Q14209 whole entry, the tested form may be a part, one chain of several): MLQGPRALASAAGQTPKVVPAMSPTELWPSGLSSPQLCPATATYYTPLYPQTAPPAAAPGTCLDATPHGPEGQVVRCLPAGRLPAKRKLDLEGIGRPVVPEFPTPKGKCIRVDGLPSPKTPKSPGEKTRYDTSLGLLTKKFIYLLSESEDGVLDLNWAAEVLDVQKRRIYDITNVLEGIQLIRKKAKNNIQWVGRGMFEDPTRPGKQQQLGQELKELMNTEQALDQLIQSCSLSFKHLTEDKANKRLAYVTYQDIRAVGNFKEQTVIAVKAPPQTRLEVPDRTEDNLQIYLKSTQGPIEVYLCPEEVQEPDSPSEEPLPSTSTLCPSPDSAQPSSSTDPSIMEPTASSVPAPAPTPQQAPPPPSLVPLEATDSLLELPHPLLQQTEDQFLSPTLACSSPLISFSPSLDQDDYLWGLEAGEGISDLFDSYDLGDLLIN
Text: as §4, §5, §1

[4] = tested on: E2F site-dependent transcription; assay: yeast E2F binding site reporter assay (p4xWT.CYC1); assay type: cell-based; conditions: A172 and L173 changed to glycine
Text: (§6) To study the role of the DEF box region in the context of the wild-type DP-1 protein, we took advantage of a yeast assay previously used to assess the properties of the DP-1/E2F heterodimer (23,31). When assayed in the context of two-hybrid proteins, with DP-1 is fused the LexA DNA binding domain and E2F-1 to the transcriptional activation domain of GAL4, transcriptional stimulation of a reporter construct driven by LEXA DNA binding sites was apparent only when both proteins were expressed together. Similarly, transcriptional activation of a reporter gene driven by physiological E2F DNA binding sites, in p4xWT.CYC1 (23,31), was dependent upon the presence of both proteins.
(§7) The yeast two-hybrid expression plasmids used were PLEX(HIS) which contains the complete LexA coding sequence, pGAD.L6 which contains the Gal 4 transcription activation domain. pLEX(HIS).DP-1 contains the murine DP-1 fused to the C-terminus of the LexA coding sequence and GAD.E2F-1 the human E2F-1 downstream of the Gal4 activation domain; all constructs were as described previously (23,31), apart from pLEX-DP-1/MT which contained DP-1 with residues 172 and 173 altered to glycine residues. Yeast strain CTY10-5d was used for the two-hybrid assay and W3031a, which carries p4xWT.CYC 1, for the E2F site-dependent transcription assay (23,31).

DP-1/E2F-1 interaction = biological target: T6, DP-1/E2F-1 interaction (UniProt Q01094+Q08639, A172G/L173G); assay: yeast two-hybrid assay LexA-DP-1 / GAL4 activation domain-E2F-1; assay type: cell-based; conditions: A172 and L173 changed to glycine
T6 construct: expressed in transfected cells; host or cells: yeast strain CTY10-5d
T6 sequence (Q01094 whole entry, the tested form may be a part): as the sequence (Q01094 whole entry, the tested form may be a part, one chain of several) above
T6 sequence (Q08639 whole entry A172G/L173G, the tested form may be a part): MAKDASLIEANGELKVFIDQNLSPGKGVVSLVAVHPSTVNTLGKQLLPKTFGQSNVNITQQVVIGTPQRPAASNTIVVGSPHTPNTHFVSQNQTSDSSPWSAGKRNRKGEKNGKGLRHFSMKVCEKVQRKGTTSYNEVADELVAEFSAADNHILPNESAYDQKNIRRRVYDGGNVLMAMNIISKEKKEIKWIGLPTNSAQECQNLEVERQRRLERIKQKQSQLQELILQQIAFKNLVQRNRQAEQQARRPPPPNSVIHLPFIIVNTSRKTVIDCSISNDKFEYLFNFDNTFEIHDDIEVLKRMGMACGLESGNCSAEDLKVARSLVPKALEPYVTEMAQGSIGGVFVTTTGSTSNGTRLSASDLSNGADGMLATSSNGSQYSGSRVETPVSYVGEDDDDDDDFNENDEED
Text: as §6, §7

Row | Molecule | effect on binding of DP-1 to E2F-1 (formation of DP-1/E2F-1 heterodimer) (DP-1/E2F-1 heterodimer) | inhibition of DP-1/E2F-1 DNA binding activity [1] | inactivation of E2F DNA binding activity in F9 EC cell extracts [2] | further results
1 | 15: DP-1 peptide taken from DCB1, C-terminal side of the DEF homology region (NLVQRNRQAEQQARR) [Peptide 15, reference compound] | failed to have any noticeable effect | did not interfere with DNA binding activity | – | –
2 | 17: DP-1 peptide taken from DCB1, C-terminal side of the DEF homology region (EVERQRRLERIKQKQ) [Peptide 17, reference compound] | failed to have any noticeable effect | did not interfere with DNA binding activity | – | –
3 | H1: peptide derived from the DEF box region which failed to affect heterodimer formation (RRRVYDALNVL) [Peptide H1] | failed to affect formation of the DP-1/E2F-1 heterodimer | did not interfere with DNA binding activity | not | –
4 | H6: shorter DEF box peptide lacking activity (RRVYDALNVLMAMN) [Peptide H6] | lacked activity; also recorded: failed to affect formation of the DP-1/E2F-1 heterodimer | did not interfere with DNA binding activity | – | –
5 | KNIRRRVYDALNVLMAMNIISKEKKEIKWIGLPTNSA [Peptide H, complete DEF box region, residues 163 to 199 of DP-1, 37 residues] | interfere with the binding efficiency of DP-1 and E2F-1 | Clear inhibition of DNA binding activity | inactivated | sensitivity of pocket protein-E2F complex relative to free E2F heterodimer ([2]; slower migrating E2F complex): less sensitive; effect on ability of E2F-3 to bind to DP-1 (DP-1/E2F-3 heterodimer): interfered specifically; effect on ATF DNA binding activity (ATF DNA binding activity): no effect; effect on binding of pRb to E1a [3]: no apparent effect; effect on ability of E2F-2 to bind to DP-1 (DP-1/E2F-2 heterodimer): interfered specifically
6 | NVLMAMNIISKEKKEIKWIG [Peptide H3] | – | lower activity compared to H2 and H7 | – | –
7 | Peptide 18: contains the N-terminal sequence taken from the DEF homology region (NESAYDQKNIRR) [reference compound] | failed to have any noticeable effect | did not interfere with DNA binding activity | – | –
8 | RARVYAALNVLMAMNIISK [Peptide H2mt2, mutant H2 peptide] | – | – | retained some activity, but less than wild-type H2 | –
9 | RRRAYDALNALMAMNIISK [Peptide H2mt1, mutant H2 peptide, V169 and V175 altered] | – | – | inactivated the E2F site DNA binding activity in F9 EC cell extracts with similar efficiency | –
10 | RVYDALNVLMAMNIIS [Peptide H5, 16 residues within H2] | retained antagonistic activity | lower activity compared to H2 and H7 | – | –
11 | B1 | – | – | – | reduction of response of E2F binding site reporter [4]: about 50%; reduction of activity relative to wild-type DP-1 in two-hybrid assay (DP-1/E2F-1 interaction): about 50%

Reference: US7160981B2, “Peptide antagonists of DP transcription factors” (Prolifix Limited, priority 1996, dated 2007)
